According to PMC11384143, “A pan-allelic human SIRPα-blocking antibody, ES004-B5, promotes tumor killing by enhancing macrophage phagocytosis and subsequently inducing an effective T-cell response” (Antibody Therapeutics, 2024):
Each block holds one binder with its values, some of them ahead of it.

What was measured:
[1] = biological target: T1, cynomolgus SIRPα overexpressed on CHOK1/cSIRPα cells (Macaca fascicularis, UniProt A0A2K5VYQ9); assay: flow cytometry on cells; serial dilutions of antibody on CHOK1 cells overexpressing SIRPα, 1 h at 4°C; Alexa Fluor 647 anti-human IgG Fcγ secondary antibody; MFI; settings: one partner purified
T1 construct: signal regulatory protein alpha (SIRPα), cynomolgus monkey, overexpressed on CHO-K1 cells; also called cynomolgus SIRPα-expressing cells; source: CHOK1/cSIRPα cell line, bought: Chempartner

[2] = biological target: T2, 6 × His tagged cynomolgus SIRPα ECD recombinant protein (Macaca fascicularis, UniProt A0A2K5VYQ9); assay: SPR; Biacore T200, 25°C; antibody captured on anti-human IgG (Fc) CM5 chip (80 ± 12 RU); 6 × His tagged SIRP analyte 30–0.9375 nM in 1× HBS-EP+; 1:1 binding model; settings: both partners purified
T2 construct: signal regulatory protein alpha (SIRPα), cynomolgus monkey, extracellular domain; also called cynomolgus monkey SIRPα; source: bought: KACTUS

[3] = biological target: T3, 6 × His tagged huSIRPγ ECD recombinant protein (Homo sapiens (Human)., UniProt Q9P1W8); assay: as above; settings: both partners purified
T3 construct: signal regulatory protein gamma (SIRPγ, SIRP beta2), human, extracellular domain; also called signal regulatory protein gamma; SIRP beta2; source: bought: KACTUS
T3 sequence (Q9P1W8 29-360): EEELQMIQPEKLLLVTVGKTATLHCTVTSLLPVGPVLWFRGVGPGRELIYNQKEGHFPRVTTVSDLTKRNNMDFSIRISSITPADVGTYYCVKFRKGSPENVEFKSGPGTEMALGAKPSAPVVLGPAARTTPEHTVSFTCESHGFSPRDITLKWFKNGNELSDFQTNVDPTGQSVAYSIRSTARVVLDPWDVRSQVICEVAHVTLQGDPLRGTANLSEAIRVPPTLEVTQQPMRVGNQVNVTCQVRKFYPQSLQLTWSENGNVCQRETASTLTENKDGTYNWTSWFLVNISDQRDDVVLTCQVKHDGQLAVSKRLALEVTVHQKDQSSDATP

binding result [1]: no binding
B1: HEFLB (an analogue of BI 765063) (antibody, V domains shown)
VH: EVQLVQSGAEVKKPGESLRISCKASGYSFTSYWVHWVRQMPGKGLEWMGNIDPSDSDTHYSPSFQGHVTLSVDKSISTAYLQLSSLKASDTAMYYCVRGGTGTLAYFAYWGQGTLVTVSS
VL: DVVMTQSPLSLPVTLGQPASISCRSSQSLVHSYGNTYLYWFQQRPGQSPRLLIYRVSNRFSGVPDRFSGSGSGTDFTLKISRVEAEDVGVYYCFQGTHVPYTFGGGTKVEIK
notes: human IgG4; also called analogue of BI 765063 (OSE-172)
binding result [2]: no binding (tested: 30 nM (highest analyte concentration)) | binding result [3]: no binding (tested: 30 nM (highest analyte concentration))

binding result [3]: binds
B2: hu1H9 (an analogue of FSI-189, Gilead) (antibody, V domains shown)
VH: QVQLVQSGAEVKKPGASVKVSCKASGYTFTSYWITWVKQAPGQGLEWIGDIYPGSGSTNHIEKFKSKATLTVDTSISTAYMELSRLRSDDTAVYYCATGYGSSYGYFDYWGQGTLVTVSS
VL: DIQMTQSPSSLSASVGDRVTITCRASENIYSYLAWYQQKPGKAPKLLIYTAKTLAEGVPSRFSGSGSGTDFTLTISSLQPEDFATYYCQHQYGPPFTFGQGTKLEIK
notes: human IgG4
